The record followed here is patent US20240180966A1 (YEDA RESEARCH AND DEVELOPMENT, published 2024).

Assay [1] addresses T1, NRAS wild-type (Q61) peptide on HLA-A*01:01 (human).
T1 peptide: ILDTAGQEEY
Kind of assay: cytokine release.

Assay [2] addresses T2, NRAS Q61R (RAS.Q61R) peptide on HLA-A*01:01 (human).
T2 peptide: ILDTAGREEY
Kind of assay: activation reporter or marker.

Assay [3] concerns the target T3, NRAS Q61K (RAS.Q61K; the sequence is shared by NRAS, KRAS and HRAS) peptide on HLA-A*01:01 (human).
T3 peptide: ILDTAGKEEY
Put plainly: multimer staining.

The target of assay [4] is T4, HLA-A*01:01 (human).
T4 construct: whole, on cells; also called HLA allele A*01:01
Kind of assay: HLA-peptidomics (W6/32 immunoaffinity, LC-MS/MS) of HLA-A*01:01 mono-allelic 721.221 cells with a RAS.Q61K minigene.

Assay [5] addresses T4, HLA-A*01:01. Put plainly: HLA-peptidomics (targeted MS) of HLA-A*01:01 mono-allelic 721.221 cells with a RAS.Q61R minigene.

B1: N17.2 (TCR)
alpha TRAV5 TRAJ9 CDR3: CAESSGGGFKTIF
beta TRBV6-6 TRBJ2-7 CDR3: CASSTPGPSAYEQYF
Regarding B1, the binding result is on record as “no recognition” in assay [1], “no recognition” in assay [2] and “recognises” in assay [3].

B2: NH2 (TCR)
alpha TRAV19 TRAJ39 CDR3: CALSETINNAGNMLTF
beta TRBV6-1 TRBJ1-1 CDR3: CAASQNTEAFF
For the molecule B2, the binding result in assay [1] was “no recognition”; in assay [3] it was “recognises”.

B3: N135.1 (TCR)
alpha TRAV19 TRAJ39 CDR3: CALSESHNNAGNMLTF
beta TRBV6-1 TRBJ1-1 CDR3: CAASQNTEAFF
Take B3: the figures for the binding result in assay [1], in assay [2] and in assay [3] were “no recognition”, “no recognition” and “recognises”, respectively.

B4: N17.3.2 (TCR)
alpha TRAV19 TRAJ17 CDR3: CALSESGDAAGNKLTF
beta TRBV6-1 TRBJ1-1 CDR3: CAEGENTEAFF
For B4, the binding result in assay [1] is reported as “no recognition”; in assay [2], “no recognition”; in assay [3] it was “recognises”.
As to ILDTAGKEEY (also called RAS.Q61K-derived neopeptide) [ILDTAGKEEY (SEQ ID NO: 1) neopeptide], the binding result with HLA-A*01:01 [4] was “binds”.
With ILDTAGREEY (also called RAS.Q61R-derived neopeptide) [ILDTAGREEY (SEQ ID NO: 34) neopeptide], the binding result with HLA-A*01:01 [5] was “binds”.
